FireProtDB (doi:10.1111/j.1432-1033.1995.tb20418.x)

Details: Aspergillus oryzae (strain ATCC 42149 / RIB 40), Thermal, DSC, 3/3'-dimethylglutaric acid (DMG) 100 mM, NaCl 2 M, whole UniProt chain shown; for heat capacity change of unfolding / unfolding free energy: 25 °C

B1: Guanyl-specific ribonuclease T1 wild type, P00651 (protein)
chain: MMYSKLLTLTTLLLPTALALPSLVERACDYTCGSNCYSSSDVSTAQAAGYQLHEDGETVGSNSYPHKYNNYEGFDFSVSSPYYEWPILSSGDVYSGGSPGADRVVFNENNQLAGVITHTGASGNNFVECT
- heat capacity change of unfolding (pH 4): 1.59 kcal/mol/K
- unfolding free energy (pH 4): 7.43 kcal/mol
- Tm (pH 4): 72.4 °C
- unfolding enthalpy (calorimetric) (pH 4): 93.7 kcal/mol
- heat capacity change of unfolding (pH 5): 1.59 kcal/mol/K
- unfolding free energy (pH 5): 7.39 kcal/mol
- Tm (pH 5): 73.2 °C
- unfolding enthalpy (calorimetric) (pH 5): 93.2 kcal/mol
- heat capacity change of unfolding (pH 6): 1.59 kcal/mol/K
- unfolding free energy (pH 6): 6.91 kcal/mol
- Tm (pH 6): 70.4 °C
- unfolding enthalpy (calorimetric) (pH 6): 90.2 kcal/mol
- heat capacity change of unfolding (pH 7): 1.59 kcal/mol/K
- unfolding free energy (pH 7): 4.54 kcal/mol
- Tm (pH 7): 66.8 °C
- unfolding enthalpy (calorimetric) (pH 7): 71.7 kcal/mol
- heat capacity change of unfolding (pH 8): 1.59 kcal/mol/K
- unfolding free energy (pH 8): 3.63 kcal/mol
- Tm (pH 8): 65.4 °C
- unfolding enthalpy (calorimetric) (pH 8): 63.8 kcal/mol
